Four molecules from WO2020148554A1 (dated 2020) can be followed below.

B1: 040 (antibody, V domains shown)
VH: QVQLVESGGGFVQPGGSLRLSCAASGFTFSSYAMSWVRQAPGKGLEWVSTISGSGGTTYYADSVKGRFTISRDNSKNTLYLEMITLRAEDTATYFCANSYYYHSSGLLIRWDDMDVWGQGTTVTVSS
VL: DIQMTQSPSSLSASVGDRVTITCRASQGIRNDLGWYQQKPGKAPKRLIYAASSLQSGVPSRFSGSGSGTEFTLTISSLQPEDFATYYCLQHSSYPWTFGQGTKVEIKR
B2: 6541 (antibody, V domains shown)
VH: EVQLVQWGAGLLKPSETLSLTCAVYGGSFSGNYWTWIRQPPGKGLEWIGEINHSGSTNYNPSLKSRVTISVDTSKNQFSLKLSSVTAADTAVYYCATKMGGYGDYWHWYFDLWGRGTMVTVSS
VL: EVVMTQSPATLSVSPGERATLSCRASQSLFTNLAWYQQKPGQAPRLLIYGASTRATGIPARFSGSGSGTDFSLTISRLQSEDFAFYYCQQYNDWPLTFGGGTKVDIKR
B3: 6662 (antibody, V domains shown)
VH: EVQLVESGGGLVKPGGSLRLSCAASGFGFSSAWMNWVRQAPGKGLEWVGRIKSKTDGGKTDYAAPVKGRFIMSRDDSKNTLYLQMNSLKTEDAGVYYCTTRIVLNGMDVWGQGTLVTVSS
VL: QSVLTQPPSVSGAPGQRVTISCTGSSSNIGAGYDVHWYQQLPGTAPKLLIYANNNRPSGVPDRFSGSKSGTSASLAITGLQAEDEADYYCQSYDSRLSDGVVFGGGTKLTVLG
B4: 66-3-9C (antibody, V domains shown)
VH: EVQLVESGGGLVKPGGSLRLSCAASGFTFSSYNMNWVRQAPGKGLEWVSSITTSSSYIYYAYSVKGRFTISRDNAKNSLYLQMNSLRAEDTAVYYCARFLGYSYGTNYYYYGMDVWGQGTTVTVSS
VL: not shown

The target of this assay is T1, Sudan Gulu glycoprotein (NC_006432.1) expressed on MDCK-SIAT1 cells (Sudan Gulu (SUDV), UniProt Q7T9D9 33-676).
T1 sequence: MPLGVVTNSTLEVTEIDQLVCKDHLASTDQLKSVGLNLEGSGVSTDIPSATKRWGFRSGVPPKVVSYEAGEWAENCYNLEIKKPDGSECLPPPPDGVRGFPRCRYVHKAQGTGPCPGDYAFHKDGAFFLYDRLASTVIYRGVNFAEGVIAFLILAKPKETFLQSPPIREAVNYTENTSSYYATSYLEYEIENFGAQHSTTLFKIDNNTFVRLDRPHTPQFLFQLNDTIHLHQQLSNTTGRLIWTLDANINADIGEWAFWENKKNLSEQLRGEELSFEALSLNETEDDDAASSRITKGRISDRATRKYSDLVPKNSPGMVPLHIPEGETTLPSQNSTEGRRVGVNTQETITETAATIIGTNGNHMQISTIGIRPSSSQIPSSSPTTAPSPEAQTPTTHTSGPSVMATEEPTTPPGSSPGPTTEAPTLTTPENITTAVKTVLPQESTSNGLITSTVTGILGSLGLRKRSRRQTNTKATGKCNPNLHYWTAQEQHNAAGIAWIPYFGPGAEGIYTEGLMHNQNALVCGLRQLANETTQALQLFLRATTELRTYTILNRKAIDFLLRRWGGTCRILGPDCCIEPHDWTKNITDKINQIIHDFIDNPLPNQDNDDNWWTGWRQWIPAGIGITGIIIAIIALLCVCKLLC
The assay is described as follows: indirect immunofluorescence by FACS on MDCK-SIAT1 cells expressing GP.
Turning to B1, the binding result is “binds”.
For B2 the value was “binds”.
For the molecule B3, the binding result is listed as “binds”.
As for B4, the binding result was “binds”.
